Test results published in patent US20100248328A1, “HYPERACTIVE VARIANTS OF 5-AMINOLEVULINATE SYNTHASE AND METHODS OF USE” (UNIVERSITY OF SOUTH FLORIDA, priority 2005, published 2010).
Read-outs that look alike come from different tables or passages of the source.

B1: WT: wild-type murine erythroid 5-aminolevulinate synthase (mALAS-2) (protein, UniProt P08680 50-587, looked up)
5-aminolevulinate synthase, …: QIHLKATKAGGDSPSWAKSHCPFMLSELQDRKSKIVQRAAPEVQEDVKTFKTDLLSTMDSTTRSHSFPSFQEPEQTEGAVPHLIQNNMTGSQAFGYDQFFRDKIMEKKQDHTYRVFKTVNRWANAYPFAQHFSEASMASKDVSVWCSNDYLGISRHPRVLQAIEETLKNHGAGAGGTRNISGTSKFHVELEQELAELHQKDSALLFSSCFVANDSTLFTLAKLLPGCEIYSDAGNHASMIQGIRNSGAAKFVFRHNDPGHLKKLLEKSDPKTPKIVAFETVHSMDGAICPLEELCDVAHQYGALTFVDEVHAVGLYGARGAGIGERDGIMHKLDIISGTLGKAFGCVGGYIASTRDLVDMVRSYAAGFIFTTSLPPMVLSGALESVRLLKGEEGQALRRAHQRNVKHMRQLLMDRGFPVIPCPSHIIPIRVGNAALNSKICDLLLSKHSIYVQAINYPTVPRGEELLRLAPSPHHSPQMMENFVEKLLLAWTEVGLPLQDVSVAACNFCHRPVHFELMSEWERSYFGNMGPQYVTTYA

How the values were obtained:
[1] = test system: H1299 lung carcinoma cells; conditions: added to cells infected with ALAS construct; cited from earlier work
[2] = ALAS steady-state activity, continuous spectrophotometric assay; format: biochemical; conditions: 20° C.
Description: ALAS steady-state activity of the ALAS active site loop variants was determined at 20° C. using a continuous spectrophotometric assay as described previously for wild-type ALAS (Hunter & Ferreira. A continuous spectrophotometric assay for 5-aminolevulinate synthase that utilizes substrate cycling. Anal Biochem. 1995 Apr. 10; 226(2):221-4). Rapid scanning stopped-flow measurements were performed using a model RSM-100 stopped-flow spectrophotometer (OLIS, Inc.). This instrument has a dead-time of approximately 2-ms and an observation chamber path length of 4 mm Spectral scans covering a wavelength range of 300-570 nm were collected at a rate of 1000 scans/s and then averaged to 62 scans/s in order to reduce the time course data files to an appropriate size for global fit analyses. The temperature of the syringes and the stopped-flow cell compartment was maintained at 20° C. by an external water bath. Pre-steady-state kinetic reactions of the variant enzymes were examined under single turnover conditions, using final concentrations of 60 μM enzyme, 120 mM glycine and 10 μM succinyl-CoA in 100 mM HEPES, pH 7.5 and 10% (v/v) glycerol as previously described (Hunter, & Ferreira. Pre-steady-state reaction of 5-aminolevulinate synthase. Evidence for a rate-determining product release J Biol Chem. 1999 Apr. 30; 274(18):12222-8). Single turnover data were evaluated using either a two- or three-kinetic-step mechanism as described by Equations 1 and 2, respectively (Hunter, & Ferreira. Pre-steady-state reaction of 5-aminolevulinate synthase. Evidence for a rate-determining product release J Biol Chem. 1999 Apr. 30; 274(18):12222-8).
(§1) The ALAS steady-state kinetic parameters of wild-type ALAS and the SS2 variant activity assays were also determined at 15, 25, and 35° C.

[3] = Pre-steady-state single turnover reactions, rapid scanning stopped-flow (quinonoid intermediate, 510 nm); format: biochemical; conditions: 20° C.
Description: FIGS. 5(A) through (D) are graphs showing the single turnover reactions of isolated hyperactive ALAS variants. The pre-steady state kinetic parameters were determined under single turnover conditions (60 μM enzyme-glycine complex, 10 μM succinyl-CoA) at 20° C. by monitoring absorbance changes at 510 nm. The variant catalyzed reactions A4, D8, G7, A8, (panels A-D, respectively) resemble that of the wild-type enzyme in that quinonoid lifetime is observed as a single step of quinonoid intermediate formation and 2-step process of decay (Hunter, & Ferreira. Pre-steady-state reaction of 5-aminolevulinate synthase. Evidence for a rate-determining product release J Biol. Chem. 1999 Apr. 30; 274(18):12222-8).
FIGS. 6(A) through (D) are graphs showing the single turnover reactions of isolated hyperactive ALAS variants. The pre-steady state kinetic parameters were determined under single turnover conditions (60 μM enzyme-glycine complex, 10 μM succinyl-CoA) at 20° C. by monitoring absorbance changes at 510 nm. […]
FIG. 7 is a graph showing the SS2 variant catalyzed reaction. Equilibrium and pre-steady state kinetic parameters for the SS2 variant were determined at 20° C. by monitoring changes in absorbance at 510 nm associated with quinonoid intermediate lifetime, under single-turnover conditions.
ALAS steady-state activity of the ALAS active site loop variants was determined at 20° C. using a continuous spectrophotometric assay as described previously for wild-type ALAS (Hunter & Ferreira. A continuous spectrophotometric assay for 5-aminolevulinate synthase that utilizes substrate cycling. Anal Biochem. 1995 Apr. 10; 226(2):221-4). […] Single turnover data were evaluated using either a two- or three-kinetic-step mechanism as described by Equations 1 and 2, respectively (Hunter, & Ferreira. Pre-steady-state reaction of 5-aminolevulinate synthase. Evidence for a rate-determining product release J Biol Chem. 1999 Apr. 30; 274(18):12222-8). […]

[4] = Temperature dependence of steady-state kinetics, Arrhenius plot, thermodynamic activation parameters; format: biochemical
Description: FIG. 9 is a graph showing the thermal dependence of the SS2 variant-catalyzed reaction. kcat values were calculated by performing steady-state kinetics at different temperatures. (A) an Arrhenius plot depicting the difference between the wild-type ([…]) and the SS2 variant-catalyzed (◯) reactions at 288, 293, 298, 303 and 308K. Error bars are plotted over and partially obscured by the data points.
as §1
The natural log of the calculated values for the turnover numbers (lnkcat) were plotted vs. the inverse of temperature and the data were fit to the Arrhenius equation.
where Ea is the activation energy, R is the universal gas constant, T is the absolute temperature, and A is the frequency factor. The determined activation energies were then used to calculate the thermodynamic activation parameters, ΔH, ΔG and ΔS, as previously described (Hunter, et al. Transient kinetic studies support refinements to the chemical and kinetic mechanisms of aminolevulinate synthase. J Biol. Chem. 2007 Aug. 10; 282(32):23025-35. Epub 2007 May 7). The turnover numbers for each enzyme were used to construct an Arrhenius plot, from which the thermodynamic activation parameters were derived seen in Table 4.

[5] = 37 C, pH 7.2; cited from earlier work

Molecule | Potentiation of photosensitivity [1] | Kcat [2] [s⁻¹] | Km ([2]; read-out: Km^Gly) [mM] | Km ([2]; read-out: Km^SCoA) [mM] | Qf, rate for quinonoid intermediate formation ([3]; 60 μM enzyme, 120 mM glycine, 10 μM succinyl-CoA) [s⁻¹] | Qd1, rate for first step of quinonoid intermediate decay [3] [s⁻¹] | Qd2, rate for second step of quinonoid intermediate decay [3] [s⁻¹] | ΔG^‡ (30° C.) ([4]; 30° C.) [kcal/mol] | ΔH^‡ (30° C.) ([4]; 30° C.) [kcal/mol] | ΔS^‡ (30° C.) ([4]; 30° C.) [cal/mol · K] | Slope/(K) of Arrhenius plot ([4]; 288-308 K) [K] | Ea, activation energy ([4]; 288-308 K, listed as WTALAS) [kcal/mol] | Q10 for the catalytic rate constant ([4]; steady-state temperature dependence) | Catalytic efficiency for the substrate glycine [5] [M⁻¹ s⁻¹]
CC(=O)N(O)CCCCCNC(=O)CCC(=O)N(O)CCCCCNC(=O)CCC(=O)N(O)CCCCCN [desferrioxamine] | two-fold | – | – | – | – | – | – | – | – | – | – | – | – | –
B1 | – | 0.02 ± 0.01 | 14 ± 2 | 0.011 ± 0.001 | 0.8 | 0.53 | 0.01 | 19 | 48 | −95 | −24000 | 48 | seven | 56.7
